The DeepSol protein solubility set

Test: soluble on expression in E. coli; label from the status in PepcDB or PDB records

Row | Sequence | soluble on expression in E. coli
1 | MSDEIVTNKSVTYVNNTTPVTITSSELDLRSCYQDDEVVIEVHAAALNPIDFITHQLCNSYIFGKYPKTYSRDYSGVIIKAGKDVDNRWKVGDKVNGMYSHIYGERGTLTHYLILNPAKDVPITHMVEVPKDENDPYDDFVYAAAWPLTFGTAFSTLYDFKKDWTSDSKVLVIGASTSVSYAFVHIAKNYFNIGTVVGICSKNSIERNKKLGYDYLVPYDEGSIVENVKKLKQSVLENDKFDMIFDSVGNHDFFPVIDQFLKPKAKNSFYVTIAGNNKADYKNISWRDFVSLSSILKAINPFKKYNWRFGHPYPPNNFIEVGNEMIKKGTYKPPIDSVYEFDQYKEAIDRLMSNRAKGKVVVKMK | soluble
2 | MSDEKIINQPQDVVSEMLDGLTYAYGDLIEKVPDFEIIQRKSPKSGKVALVSGGGSGHEPAHAGFVGEGMLSAAVCGAIFTSPTPDQIYEAIKSADEGAGVLLIIKNYLGDVMNFEMAREMAEMEEIKVEQIIVDDDIAVENSLYTQGRRGVAGTVLVHKILGAAAHQEASLDEIKDLADKVVKNIKTIGLALSAATVPEVGKPGFVLDDNEIEYGVGIHSEPGYRREKMKTSYELATELVGKLKEEFKFEAGQKYGILVNGMGATPLMEQFIFMNDVAKLLTEENIEILFKKVGNYMTSIDMAGLSLTMIKLEDDQWLKNLNEDVKTISWG | soluble
3 | MSDETDWYGPEAATFGDRLAAAREASGMTQAQLARRLGVKKATINGWEDDLSEPRANRLSMLAGLLNVSIVWLITGEGQGGEALNETDETARDMAALLTELRSLRADLQASGQRAARLEKQLRQIMEHSA | not soluble
4 | MSDFLKDCFQKIGWEKDHVSFGDLPLFLKAMAYRFPFENRAVLAKENYKITKEELWRRLLKDQHGGLCYDLNGFLYFVLREAGFHVKLIRGTVYAGDQEGWALEGTHAAVWLSAENGDYLVDIGFGINLALQPIPLSGETVQSPVGSFRIKKEETEKGSYVLLMDKGEGWQIGYAFTLEESDLGDLDNMKDIIHSHEKSPFNKSLLASKLTPSGRMVMSERHFTIYENGGNIQKSDIGPSGFEEKLNTH | not soluble
5 | MSDLVTKFESLIISKYPVSFTKEQSAQAAQWESVLKSGQIQPHLDQLNLVLRDNTFIVSTLYPTSTDVHVFEVALPLIKDLVASSKDVKSTYTTYRHILRWIDYMQNLLEVSSTDKLEINHDLDLPHEVIEKKKKAPAGGAADAAAKADEDVSKKAKKQDHPRGKPDEETLKKLREEAKAKKAAKKAANAKQQQEQQNKAPEKPKPSAIDFRVGFIQKAIKHPDADSLYVSTIDVGDEEGPRTVCSGLVKHFPLDAMQERYVVVVCNLKPVNMRGIKSTAMVLCGSNDDKVEFVEPPKDSKAGDKVFFEGFGDEAPMKQLNPKKKIWEHLQPHFTTNDGLEVIFKDEEEKDHPVRKLTNAKGESFKVASIANAQVR | not soluble
6 | MSDNDELQQIAHLRREYTKGGLRRRDLPADPLTLFERWLSQACEAKLADPTAMVVATVDEHGQPYQRIVLLKHYDEKGMVFYTNLGSRKAHQIENNPRVSLLFPWHTLERQVMVIGKAERLSTLEVMKYFHSRPRDSQIGAWVSKQSSRISARGILESKFLELKQKFQQGEVPLPSFWGGFRVSLEQIEFWQGGEHRLHDRFLYQRENDAWKIDRLAP | soluble
7 | MSDNNQALKDAGLKVTLPRLKILEVLQQPECQHISAEELYKKLIDLGEEIGLATVYRVLNQFDDAGIVTRHHFEGGKSVFELSTQHHHDHLVCLDCGEVIEFSDDVIEQRQKEIAAKYNVQLTNHSLYLYGKCGSDGSCKDNPNAHKPKK | soluble
8 | MSDPAGNRPKTEKELKKEAEKAAKLAKFEEKQKKLAEKKAAASDKPVKEAKAKKEQTVEAAEPVDQTPTGQRKKIDGEIPAAYFPGYVESGWYSWWEKEGFFKPEYIDKLNPGSNPADSFTVCIPPPNVTGNLHVGHALATTVEDTITRFNRMHGKRTLFNPGCDHAGIATQVVVEKRLKRERGLTRHDLGRDRFNQEVWHWKNEKGDVIYDQFRKLGASVDWDRAVFTMDPKMCRAVTEAFIRMHESGTIYRSNRLVNWSCALRSAISDIEVDKKELTGSTLIAVPGYDKKIEFGVLNSFAYKIQGSDEEIVVSTTRIETMLGDSGVAVHPDDQRYKHLVGKQCIHPFIPTRNLPIFADSFVEMEFGTGAVKITPAHDHNDYEVGIRQNLPFHNCITDDGLISQGCGEFSGMKRFDARTAVIEALKEKGLYRGKEDNPMVVPTCSRSKDVIEPILKPQWYVKCAHMAEKAVAAVANGDLQIIPEFHKATWNRWLESSRDWCISRQLWWGHRIPAYYISFADGREQPLPEENYWVSARTEQEALAKAAQKFQVPEAEILLKWDEDVLDTWFSSGMWPFAVFGWPDATKDMDLFFPGAVLETGHDILFFWVARMVFMAQELTGKLPFKEILLHAMIRDAHGRKMSKSLGNVIDPLDVIRGISLNDLQAQLLGGNLDEKEIAVAKEGQARDYPDGIPECGVDALRFALLSYTSQGRDINLDVLRVHGYRKFCNKLWQVVRFALARISDKPEQKPTFEINLKSATPTDLWILSRLAKAVKETNEALKAYNFTQATTVTYNFWLYDFCDVYVETIKPVLYGDNTTLRQVAISVLHKCIDTGLRLISPLMPFISEELWQRMPRLDDSDYTSPSIIVAQYPLTQKYEKYQNEKLEAAFEFAQELIGKVRSLRADYDLKKTKITMQILSETPEDESMLNDISAVITTLTFSEKVSILNKCESDKIEKGSAHIACGGRCQVYINLTGIIDVPKEIEKLGAKLQKNQISVKKIGDIQSSADYEQKVPVDIRALDQEKKATLEKEIENITAAIAQLKALN | not soluble
9 | MSDPAIAVLPYGMKLGPALSGLPLDQVNWPLGCPERLVGKTLGDLGAGDHLLVYPRTGTHFQLSRGTRARISLIMAEPAVIHAKHYALLRVTWRRFHRVLTFNQAAVDRLPNARLLLFGSTWVPEWQSLTPEKVAQCSLIASAKRDSTGHKLRHAVVDWVRASDQDVAVLGRGYQPFDSKADGLAPYRYSVVIENVQERNYFSEKLLDAVFCETVPIYWGCPNIADFVDTTAMILCTREEDIRRAVAEMSAEDYAARLPALRALKQQLAPYAAHEARAARMILDELLEHHHHHH | soluble
10 | MSDQEDKEVPDVEVDYSKYDEDSVPIPEKDIEESHPGRPDLDYDETPVGPAPTECTEEKND | not soluble
11 | MSDQPIVLTSFYPKEGGARDKILLDGKNFGTDVSKIKVYFNNARASVVSSSGSRIYAIVPRLPGDNPRISVVVDTDSVAYEETYAYHTQALVSTVTGNGETSFLAGTLSTAQVYGKYLDLDAEGNLFMSWRDGGTFGIARINEQQNIVTPLIEADAANRILYANGLTVDRATGMLTAAHESVKEVTFTFDPREAWYPRQRNIKYSQSDLNSIVDADRYKNFVTFCPYDGYLYTRYRDGKIAKIDPNTFEGHIIHQGPSGSQYGQAINPAKPWLLYITLHSNAPTAYRQGISVLDLRDPDGTGGFKRLNAPGGSAFRDGPIEDALFNYPKDIKFDNDGNMFVADYGNHCIRMISADNIVTTVAGQPGVAGYKDGGPVESLFKNPWGVAVNEQGDIYIADWGNARIRKLVIELEHHHHHH | soluble
12 | MSDRHFDELATRFAEKIYGGAKGAIRLAVLQADLAEALPERPLRVLDIGAGLGHMSLWLAARGHRVTLAEPAQPMLDGARQRFAEAGQAAEFIQAPWQELLGQLTEPYDLVLCHAVLEWLAEPHAILPVLHQLCAPGGWLSLAFYNRDALIYRNLLKGHFRKLRKERFAGEGQSLTPQRPLDPRELEQALAARWRIEARSGVRVFHDYMPSEFQAKAERLDLVEMELAYRRHPAFAGLGRYLHWLCRPQ | not soluble
13 | MSDSKPRDVQVLPIATNTKVLRARSWSRLRFEIEYALERGTTSNSYVIEGDKTAIIDPPVESFMKIYLEALQQTVNLKKLDYVILGHFSPNRIPTFKALLELAPQITFVCSLPAAGDLRAAFPDDNLNILPMRGKETLDLGKGHVLKFLPIPSPRWPAGLCTYDVQTQILYTDKIFGAHICGDDVFDDNWESFKEDQRYYFNCLMAPHAIHVEAALEKISDLQVRLYAVGHGPLVRTSLIALTQAYADWSKAQKDREISVALLYASAYGNTATIARAIALGLTKGGVAVKSINCEFATPEEIQTNLEQVDGFLIGSPTIGGHAPTPINTALGIVLKVGDNNKLAGVFGSYGWSGEALDMIEGKLRDAGYRFGLDTLKVKFKPDDVTLKFCEEVGTDFAQTLKKAKKVRVPQQAATPVEQAVGRIVGSVCVITAKQGDVSTGMLGSWVSQATFNPPGLTVAIAKERAIESLMYPGGKFALNILSEGNHLEYMKHFRKNFAPGEDRFANFTTTEADNGCTVLADALAYVECSVDQRLECGDHWVVYATVDNGKLLKPDDVTAINHRKTGNHY | soluble
14 | MSDSWTERWNDRYSNEIFAYGEKPNNYLKAQLENLQPGTILFAAEGEGRNAVFAACLGWDVQAFDISSEGKKKAFQLAEKNQVTIAYQVGQLETLGYTAGQFDALALIYAHFPATVKSAYHRILSSYVRSGGYIIFEAFSKKHLDYLAKNEQVGGPKEFDMLFSIEEIKADFPDYEILELEEKEIELNEGQFHNGTGSVIRFTGRKKLEHHHHHH | not soluble
15 | MSDTDYYRELEASEQRLSDSRAANRESIRTVEDKISDEREKHVARMSEKEKKHHENMLRLTNSSAAERKSAEEAHRKSVEQLKEKHKNETEKLETQIKEIKEKGEEDVRKVELQRANLEKQRTEALDIHLETMKELNEKKFEEIRQQRKEQNILNVEEMKALSTRNAIEHETQMGLIDDTQNMILSRESRQSSLTLIGHMMKSIESGDAISSLLQEMKTYCENRDQYSPTDIKIMKNISADIGKHRAKCDFQRQQLISKINLESNADPQVVDGCFEMSMKMKCCVESSDLRSVCTTLPLLAAQQEHARISGIINKIGSLTDNLDAINVEIKTKSIQWSRRITNALTNTTGN | not soluble
16 | MSDVAEEKAEFLVIRTYGSESFRKECADLIEKELHKLNATIARVPVGEFVAYAENAVKNETDSEAVGSSSVKRENSANDSPANTNDVDIVSSPVKRGRGRKAKNPSADADVNDTGSSPVKKGRGRPIKNPSADAGSPLVKKGRGRRAQTPAADTDAIDTASSPVKKGRGRPAKNPSADAGSPLVKKGRGRQAKNLAADTDAIDTASSPVKKGRGRPLKKTAAEADVNGLGSPSANRITGCPPSTKVSNQSSPPEPAVNESEEADEPVLKRGRSVKQPKDESESDDEDAEKAPAAIPKKRGRPGKSAIDAFFDGSD | soluble
17 | MSEDLMDLSPEEGIERFLRHREPSVRESTMRNAKTRLRFFNEWCEERDIENLNNLTGRDLADFVAWRRGDIAALTLQKQLSTIREALRYWADIEGVDDGLAEKVHAPELEHHHHHH | not soluble
18 | MSEDWPQHFPPRGTVPDAEVYDQFISASTLQWWYVNAHLTVKGEDNSSLAFFASFFRQAGDNCPTAATKYYDACVWALIDLKNKKCYAESALDPESIDQLKLRLDPAVMGRKLEHVEVALLELLNKGRVPRPDRLLKRKAVYTQHPFSIALDDSCVMTIAQEGSARRYTFSLTNAADDVHVEVCLETQQQPVLHGKDGCVNGMYYYYFPSMSVTGYVVVKGLKREVTGLGWYDREVGGSTAEVDREAKYTWSWLSLHASNMSQLSIFYISGNAEDEGKERVIVETRADGSRHYHDDLIMETNKSWSSLVTFMQYPSEFRLCSASMGLDVTIHTAFDAQEIGTVLVGGAGFYEGVVEGSGVCSGDAVTLRGFFEYKKNAAPYRNTSELLKYVGSYVHGALEEIYPLAASDSWLSENVLGRYAMDRGAPADKICETLFRPVRSIIDRGGKSWRSLILVSCCNALSRQYFDCRRYIAVAELLHVGSLIIDDIQDNSVVRRGGKCVHVEYGVATAINAGSACYFMGPRAARIQDLPPEKASRIYQLYFDVLLAGHAGQGLDIYRLDYLMPKVVETGDASTLFDALDAIHTYKTGGAVGALCSMACVLCEAPTVLSEAVERFGLALGLAFQIVDDALNIRGFEENLKEEAEDIKDGKITYPTAIAMGRLEAADRQTLWAILRKPTKEAADIQQAVELIMKVDATSECFLIARHRLQEMWNALDPLLEDSFPKLLMRTFCSFLVERKY | soluble
